Molecular target: SKP2 (UniProt Q13309)
Experiment: co-IP, blot for Myc and p27
Settings: reference: wild-type p27; sites T187

## p27 (Kip1) (from UniProt P46527) p27 T187A
  binding against the reference: lost
